Laboratory results as given in paper PMC6637204, “Inactivating mutations and X-ray crystal structure of the tumor suppressor OPCML reveal cancer-associated functions” (Nature Communications, 2019).
Positions count from the first letter of the chain named. Names may count otherwise.

Legend:
gel filtration = conditions: glycan lost; control: wild type
[1] = MTS viability, R428 IC50, SKOV3; conditions: glycan lost; control: wild type
[2] = western blot, transduced SKOV3, PEA1, PEO1; conditions: glycan lost; control: wild type
[3] = SYPRO Orange thermal shift assay; conditions: glycan lost; control: wild type
[4] = immunofluorescence confocal microscopy; conditions: glycan lost; control: wild type
[5] = Caspase-Glo 3/7 assay, SKOV3; conditions: glycan lost; control: wild type
[6] = recombinant secretion from insect cells; conditions: glycan lost; control: wild type
[7] = target: the molecule itself; assay: SDS-PAGE without heat denaturation, western blot; extracts of transduced cells run without prior heat denaturation, anti-OPCML blot
[8] = target: the molecule itself; assay: SAXS; WT OPCML in 50 mM HEPES pH 7.5, 200 mM sodium chloride, 2% glycerol, 0.02% sodium azide; three concentrations merged; fit to dimer and monomer models
[9] = target: the molecule itself; assay: SEC-MALLS; samples at 1 µg/µL, 1 mL/min in PBS pH 7.4, room temperature
[10] = target: the molecule itself; assay: SEC; gel filtration; dilutions equilibrated 24 h, 50 µL on Superdex 200 10/30 GL at 0.5 mL/min; peak elution volume against concentration fit to a monomer-dimer equilibrium (dimer to monomers)

B1: OPCML: N70H (protein)
parent chain: MGVCGYLFLPWKCLVVVSLRLLFLVPTGVPVRSGDATFPKAMDNVTVRQGESATLRCTIDDRVTRVAWLNRSTILYAGNDKWSIDPRVIILVNTPTQYSIMIQNVDVYDEGPYTCSVQTDNHPKTSRVHLIVQVPPQIMNISSDITVNEGSSVTLLCLAIGRPEPTVTWRHLSVKEGQGFVSEDEYLEISDIKRDQSGEYECSALNDVAAPDVRKVKITVNYPPYISKAKNTGVSVGQKGILSCEASAVPMAEFQWFKEETRLATGLDGMRIENKGRMSTLTFFNVSEKDYGNYTCVATNKLGNTNASITLYGPGAVIDGVNSASRALACLWLSGTLLAHFFIKF
other: aggregation (gel filtration): increases
other: sensitisation to AXL inhibitor [1]: abolishes
expression_or_secretion [2]: no change
stability_or_folding, Tm [3]: decreases
localisation_or_trafficking [4]: no change
other: R428-induced apoptosis [5]: abolishes
expression_or_secretion [6]: decreases

B2: wild-type OPCML expressed in transduced cancer cells (natural protein, human, UniProt Q14982 28-322, looked up)
chain: GVPVRSGDATFPKAMDNVTVRQGESATLRCTIDDRVTRVAWLNRSTILYAGNDKWSIDPRVIILVNTPTQYSIMIQNVDVYDEGPYTCSVQTDNHPKTSRVHLIVQVPPQIMNISSDITVNEGSSVTLLCLAIGRPEPTVTWRHLSVKEGQGFVSEDEYLEISDIKRDQSGEYECSALNDVAAPDVRKVKITVNYPPYISKAKNTGVSVGQKGILSCEASAVPMAEFQWFKEETRLATGLDGMRIENKGRMSTLTFFNVSEKDYGNYTCVATNKLGNTNASITLYGPGAVIDGVN
notes: OPCML, human, WT cDNA from pENTR4 shuttled to pLenti CMV Puro DEST; GPI-anchored, membrane-localized; also called WT OPCML; WT; source: SKOV3, PEA1, PEO1 and HCT116 cells, stably transduced (lentivirus, pLenti CMV Puro DEST); on cells or in lysate
stoichiometry N [7]: 2

B3: soluble recombinant wild-type OPCML (residues 36-316, D1-D3) (domain or fragment, human, UniProt Q14982 36-316, looked up)
chain: ATFPKAMDNVTVRQGESATLRCTIDDRVTRVAWLNRSTILYAGNDKWSIDPRVIILVNTPTQYSIMIQNVDVYDEGPYTCSVQTDNHPKTSRVHLIVQVPPQIMNISSDITVNEGSSVTLLCLAIGRPEPTVTWRHLSVKEGQGFVSEDEYLEISDIKRDQSGEYECSALNDVAAPDVRKVKITVNYPPYISKAKNTGVSVGQKGILSCEASAVPMAEFQWFKEETRLATGLDGMRIENKGRMSTLTFFNVSEKDYGNYTCVATNKLGNTNASITLYGPGA
modifications: N-linked glycans modelled at asparagines 70, 293 and 306
notes: OPCML, human, UniProt Q14982, residues 36-316 (D1-D3); also called WT OPCML; rOPCML; source: Hi5 insect cells, baculovirus, secreted; purified (protein A, thrombin digestion, negative protein A, HiTrap Q, SEC); not shown: Fc (human IgG1, UniProt P01857 residues 118-330, joined by ALVPRGS), C-terminal, cleaved
stoichiometry N [8]: 2

B4: soluble recombinant OPCML P95R (residues 36-316) (domain or fragment, human, UniProt Q14982 36-316, looked up)
chain: B3 chain with P60R
notes: OPCML, human, UniProt Q14982, residues 36-316 (D1-D3), clinical somatic mutation P95R; Same construct as m1 with P95R; PDB 5UV6 is the wild-type parent; ALVPR probably left at the C-terminus after thrombin (surmised); also called rP95R; source: Hi5 insect cells, baculovirus, secreted; purified (protein A, thrombin digestion, negative protein A, HiTrap Q, SEC); not shown: Fc (human IgG1, UniProt …)
stoichiometry N [9]: 2

B5: soluble recombinant OPCML R65L (residues 36-316) (domain or fragment, human, UniProt Q14982 36-316, looked up)
chain: B3 chain with R30L
notes: OPCML, human, UniProt Q14982, residues 36-316 (D1-D3), clinical somatic mutation R65L; Same construct as m1 with R65L; PDB 5UV6 is the wild-type parent; ALVPR probably left at the C-terminus after thrombin (surmised); also called rR65L; source: Hi5 insect cells, baculovirus, secreted; purified (protein A, thrombin digestion, negative protein A, HiTrap Q, SEC); not shown: Fc (human IgG1, UniProt …)
fold weaker Kd than WT OPCML [10]: ≥ 250 fold
